Laboratory results reported in patent publication US20260008864A1 (CITY OF HOPE, published 2026).

B1: 3-38BN002 (5F1O) (bispecific antibody)
chain: EVQLVESGGGLVQPGRSLRLSCAASGFTFDDYTMHWVRQAPGKGLEWVSDISWNSGSIGYADSVKGRFTVSRDNAKNSLYLQMNSLRGEDTAIYYCAKDMSGYGHYGKYGMDVWGQGTTVTVSSASTKGPSVFPLAPSSKSTSGGTAALGCLVKDYFPEPVTVSWNSGALTSGVHTFPAVLQSSGLYSLSSVVTVPSSSLGTQTYICNVNHKPSNTKVDKKVEPKSCAASGGAGSDVQLQESGGGLVQAGHSLRLSCVGSGSRFDNYAMGWFRQAPGKEREFVAAISWSSGTTRYLDTVKGRFTISRDNAKSTVYLQMNSLKPEDTAVYYCAARYQPRYYDSGDMDGYEYDNWGQGTQVTVSSGAVPLSLYGAGGDIQMTQSPILLSASVGDRVTITCRASQSIRSYLNWYQQRTNGSPRLLIYAASSLQSGVPSRFSGSGSGTDFTLTINSLQPDDEADYYCQQTYSNPPITFGAGTRLEIKRTVAAPSVFIFPPSDEQLKSGTASVVCLLNNFYPREAKVQWKVDNALQSGNSQESVTEQDSKDSTYSLSSTLTLSKADYEKHKVYACEVTHQGLSSPVTKSFNRGEC
notes: Single chain with cleavable linker L2 (MMP-9 site); also called 38N002; CD3HC-L1-CD38nanobody (5F1O)-L2-CD3LC
B2: 3-38BN005 (5F1O) (bispecific antibody)
chain: EVQLVESGGGLVQPGRSLRLSCAASGFTFDDYTMHWVRQAPGKGLEWVSDISWNSGSIGYADSVKGRFTVSRDNAKNSLYLQMNSLRGEDTAIYYCAKDMSGYGHYGKYGMDVWGQGTTVTVSSASTKGPSVFPLAPSSKSTSGGTAALGCLVKDYFPEPVTVSWNSGALTSGVHTFPAVLQSSGLYSLSSVVTVPSSSLGTQTYICNVNHKPSNTKVDKKVEPKSCAASGGAGSDVQLQESGGGLVQAGHSLRLSCVGSGSRFDNYAMGWFRQAPGKEREFVAAISWSSGTTRYLDTVKGRFTISRDNAKSTVYLQMNSLKPEDTAVYYCAARYQPRYYDSGDMDGYEYDNWGQGTQVTVSSSSGASASAAGGSDIQMTQSPILLSASVGDRVTITCRASQSIRSYLNWYQQRTNGSPRLLIYAASSLQSGVPSRFSGSGSGTDFTLTINSLQPDDEADYYCQQTYSNPPITFGAGTRLEIKRTVAAPSVFIFPPSDEQLKSGTASVVCLLNNFYPREAKVQWKVDNALQSGNSQESVTEQDSKDSTYSLSSTLTLSKADYEKHKVYACEVTHQGLSSPVTKSFNRGEC
notes: Single chain with non-cleavable linker L2; also called CD3HC-L1-CD38nanobody (5F1O)-L2-CD3LC
B3: 3-38BN003 (5F21) (bispecific antibody)
chain: EVQLVESGGGLVQPGRSLRLSCAASGFTFDDYTMHWVRQAPGKGLEWVSDISWNSGSIGYADSVKGRFTVSRDNAKNSLYLQMNSLRGEDTAIYYCAKDMSGYGHYGKYGMDVWGQGTTVTVSSASTKGPSVFPLAPSSKSTSGGTAALGCLVKDYFPEPVTVSWNSGALTSGVHTFPAVLQSSGLYSLSSVVTVPSSSLGTQTYICNVNHKPSNTKVDKKVEPKSCAASGGAGSDVQLQESGGGSVQAGGSLTLSCTASGLLFRLASMGWYRQAPGKERELIATITVGGKTNYKDSVQGRFIITRDNTGDNTKSTVTLQMNRLKPEDTAVYYCNTASPAVGADTWGQGTRVTVSSGAVPLSLYGAGGDIQMTQSPILLSASVGDRVTITCRASQSIRSYLNWYQQRTNGSPRLLIYAASSLQSGVPSRFSGSGSGTDFTLTINSLQPDDEADYYCQQTYSNPPITFGAGTRLEIKRTVAAPSVFIFPPSDEQLKSGTASVVCLLNNFYPREAKVQWKVDNALQSGNSQESVTEQDSKDSTYSLSSTLTLSKADYEKHKVYACEVTHQGLSSPVTKSFNRGEC
notes: Single chain with cleavable linker L2 (MMP-9 site); also called 38N003; CD3HC-L1-CD38nanobody (5F21)-L2-CD3LC
B4: 3-38BN006 (5F21) (bispecific antibody)
chain: EVQLVESGGGLVQPGRSLRLSCAASGFTFDDYTMHWVRQAPGKGLEWVSDISWNSGSIGYADSVKGRFTVSRDNAKNSLYLQMNSLRGEDTAIYYCAKDMSGYGHYGKYGMDVWGQGTTVTVSSASTKGPSVFPLAPSSKSTSGGTAALGCLVKDYFPEPVTVSWNSGALTSGVHTFPAVLQSSGLYSLSSVVTVPSSSLGTQTYICNVNHKPSNTKVDKKVEPKSCAASGGAGSDVQLQESGGGSVQAGGSLTLSCTASGLLFRLASMGWYRQAPGKERELIATITVGGKTNYKDSVQGRFIITRDNTGDNTKSTVTLQMNRLKPEDTAVYYCNTASPAVGADTWGQGTRVTVSSSSGASASAAGGSDIQMTQSPILLSASVGDRVTITCRASQSIRSYLNWYQQRTNGSPRLLIYAASSLQSGVPSRFSGSGSGTDFTLTINSLQPDDEADYYCQQTYSNPPITFGAGTRLEIKRTVAAPSVFIFPPSDEQLKSGTASVVCLLNNFYPREAKVQWKVDNALQSGNSQESVTEQDSKDSTYSLSSTLTLSKADYEKHKVYACEVTHQGLSSPVTKSFNRGEC
notes: Single chain with non-cleavable linker L2; also called 38N006; CD3HC-L1-CD38nanobody (5F21)-L2-CD3LC
B5: 3-38BN001 (5F1K) (bispecific antibody)
chain: EVQLVESGGGLVQPGRSLRLSCAASGFTFDDYTMHWVRQAPGKGLEWVSDISWNSGSIGYADSVKGRFTVSRDNAKNSLYLQMNSLRGEDTAIYYCAKDMSGYGHYGKYGMDVWGQGTTVTVSSASTKGPSVFPLAPSSKSTSGGTAALGCLVKDYFPEPVTVSWNSGALTSGVHTFPAVLQSSGLYSLSSVVTVPSSSLGTQTYICNVNHKPSNTKVDKKVEPKSCAASGGAGSDVQLQESGGGLVQAGGSLRLSCTGSGRTFRNYPMAWFRQAPGKEREFVAGITWVGASTLYADFAKGRFTISRDNAKNTVYLQMNSLKPEDTAVYSCAAGRGIVAGRIPAEYADWGQGTQVTVSSGAVPLSLYGAGGDIQMTQSPILLSASVGDRVTITCRASQSIRSYLNWYQQRTNGSPRLLIYAASSLQSGVPSRFSGSGSGTDFTLTINSLQPDDEADYYCQQTYSNPPITFGAGTRLEIKRTVAAPSVFIFPPSDEQLKSGTASVVCLLNNFYPREAKVQWKVDNALQSGNSQESVTEQDSKDSTYSLSSTLTLSKADYEKHKVYACEVTHQGLSSPVTKSFNRGEC
notes: Single-chain anti-CD3 Fab heavy chain - linker L1 - anti-CD38 nanobody 5F1K - cleavable linker L2 (MMP-9 site) - anti-CD3 light chain; also called 3-38N001; CD3HC-L1-CD38nanobody (5F1K)-L2-CD3LC
B6: 3-38BN004 (5F1K) (bispecific antibody)
chain: EVQLVESGGGLVQPGRSLRLSCAASGFTFDDYTMHWVRQAPGKGLEWVSDISWNSGSIGYADSVKGRFTVSRDNAKNSLYLQMNSLRGEDTAIYYCAKDMSGYGHYGKYGMDVWGQGTTVTVSSASTKGPSVFPLAPSSKSTSGGTAALGCLVKDYFPEPVTVSWNSGALTSGVHTFPAVLQSSGLYSLSSVVTVPSSSLGTQTYICNVNHKPSNTKVDKKVEPKSCAASGGAGSDVQLQESGGGLVQAGGSLRLSCTGSGRTFRNYPMAWFRQAPGKEREFVAGITWVGASTLYADFAKGRFTISRDNAKNTVYLQMNSLKPEDTAVYSCAAGRGIVAGRIPAEYADWGQGTQVTVSSSSGASASAAGGSDIQMTQSPILLSASVGDRVTITCRASQSIRSYLNWYQQRTNGSPRLLIYAASSLQSGVPSRFSGSGSGTDFTLTINSLQPDDEADYYCQQTYSNPPITFGAGTRLEIKRTVAAPSVFIFPPSDEQLKSGTASVVCLLNNFYPREAKVQWKVDNALQSGNSQESVTEQDSKDSTYSLSSTLTLSKADYEKHKVYACEVTHQGLSSPVTKSFNRGEC
notes: also called 3-38N004; CD38-CD3 BIONIC

Tests used:
CD3-Fc = target: T1, CD3-Fc; test: SPR, CD3-Fc immobilised on CM5 chip, 25 C
T1 construct: Immobilised on a CM5 chip at 1000 RU; also called CD3 target
Protocol: CD3-Fc was immobilized on a CM5 sensor chip at 1000 response units (RU) using ECD/NHS coupling methods. […] All samples were prepared at concentrations of 30 nM, 10 nM, 3 nM or 1 nM in HBS-EP+ runner buffer at 25° C.

CD38-Fc [1] = target: T2, CD38-Fc (UniProt P28907 43-300); test: SPR, CD38-Fc immobilised on CM5 chip, 25 C
T2 construct: Immobilised on a CM5 chip at 200 RU; also called CD38 antigen target; not shown: Fc part
Protocol: (§1) CD38-Fc was immobilized on a CM5 sensor chip at 200 response units (RU) using ECD/NHS coupling. […] These bispecific compounds include a protease cleavage site within one of the linker regions. […] All samples were prepared at concentrations of 30 nM, 10 nM, 3 nM or 1 nM in HBS-EP+ runner buffer at 25° C.

[2] = target: T3, CD3 on cells (PBMC, primary patient samples); test: flow cytometry, PBMC treated 1 h with 10 ug/mL of the binder, dot plot CD38-PE against CD3-V450; the C-IgG panel prints 25%; the filing reads the figure as binding to CD3 and CD38
T3 construct: whole, on cells
Protocol: (§2) The CD3-CD38 compounds were then incubated with PBMCs to assess binding to CD3 and CD38 antigens presented on effector cells.

CD38-Fc [3] = target: T2, CD38-Fc; test: SPR, CD38-Fc immobilised on CM5 chip, 25 C; ** = kd outside of detectable limits
Protocol: as §1

[4] = target: T4, CD38 on cells (Nomo-1, SKM-1, MM1S, THP-1, HL60, PBMC, primary patient samples) (UniProt P28907 1-300); test: flow cytometry, PBMC treated 1 h with 10 ug/mL of the binder, dot plot CD38-PE against CD3-V450; the C-IgG panel prints 48%; CD3+CD38+ quadrant of this panel: 0%; the filing reads the figure as binding to CD3 and CD38
T4 construct: whole, on cells
Protocol: as §2

Row | Binder | Kd (CD3-Fc) | koff (CD3-Fc) | kon (CD3-Fc) | Kd (CD38-Fc [1]) | koff (CD38-Fc [1]) | kon (CD38-Fc [1]) | CD3 (% of PBMC in the CD3-V450 positive, CD38-PE negative quadrant) [2] | koff (CD38-Fc [3]) | CD38+ (% of PBMC in the CD38-PE positive, CD3-V450 negative quadrant) [4]
1 | B1 | 530 nM | 0.0227 s⁻¹ | 42900 M⁻¹ s⁻¹ | 0.772 nM | 0.000127 s⁻¹ | 165000 M⁻¹ s⁻¹ | 12% | – | –
2 | B2 | – | – | – | – | – | 590000 M⁻¹ s⁻¹ | 11% | < 1e-05 s⁻¹ | –
3 | B3 | 522 nM | 0.0525 s⁻¹ | 101000 M⁻¹ s⁻¹ | 0.478 nM | 6.84e-05 s⁻¹ | 143000 M⁻¹ s⁻¹ | 12% | – | 15%
4 | B4 | – | – | – | 0.473 nM | 7.33e-05 s⁻¹ | 155000 M⁻¹ s⁻¹ | 12% | – | 11%
5 | B5 | – | – | – | 0.946 nM | 0.000696 s⁻¹ | 735000 M⁻¹ s⁻¹ | 13% | – | 1%
6 | B6 | – | – | – | 0.962 nM | 0.000711 s⁻¹ | 740000 M⁻¹ s⁻¹ | 11% | – | 1%
